These results are taken from paper doi:10.1101/2023.05.22.541748 (bioRxiv, 2023).

This experiment deals with ubiquitin (wild type, Q40Ub) (UniProt P0CG48 1-76). Put plainly: NMR chemical shift perturbations of the conjugate against the free proteins.

B1: Ubc13 C87K/K92T/K94Q (enzyme)
chain: MAGLPRRIIKETQRLLAEPVPGIKAEPDESNARYFHVVIAGPQDSPFEGGTFKLELFLPEEYPMAAPKVRFMTKIYHPNVDKLGRIKLDILTDQWSPALQIRTVLLSIQALLSAPNPDDPLANDVAEQWKTNEAQAIETARAWTRLYAMNNI
Turning to B1, the binding result was “binds”.
